Experimental data taken from patent publication US11666658B2, “Rifamycin analogs and antibody-drug conjugates thereof” (Regeneron Pharmaceuticals, Inc., priority 2018, dated 2023).

Tests used:
His9-hMSR1 = molecular target: T1, His9-hMSR1 (Homo sapiens, UniProt P21757); test: Cross-competition between anti-MSR1 antibodies (OCTET bio-layer interferometry); assay type: binding; settings: label = first mAb (mAb-1) on His9-hMSR1 captured with anti-Penta-His Octet biosensors; value = competing mAb-2
T1 construct: human MSR1 extracellular domain expressed with a N-terminal nonahistidine tag; purchased R&D Systems 2708-MS
T1 sequence (P21757 77-451 limits assumed): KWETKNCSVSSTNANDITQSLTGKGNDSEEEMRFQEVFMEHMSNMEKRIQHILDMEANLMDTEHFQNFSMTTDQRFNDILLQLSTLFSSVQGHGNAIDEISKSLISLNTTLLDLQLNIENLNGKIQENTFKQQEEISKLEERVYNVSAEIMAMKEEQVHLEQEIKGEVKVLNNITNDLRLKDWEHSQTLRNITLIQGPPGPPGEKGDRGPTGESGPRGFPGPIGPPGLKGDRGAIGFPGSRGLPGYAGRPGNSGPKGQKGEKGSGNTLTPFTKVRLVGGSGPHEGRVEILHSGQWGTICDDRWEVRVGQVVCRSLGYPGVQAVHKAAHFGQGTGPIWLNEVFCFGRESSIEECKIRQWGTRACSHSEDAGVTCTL
Method: Binding competition between different anti-MSR1 antibodies was assessed using a real time, label-free bio-layer interferometry assay on an OCTET® HTX biosensor platform (Pall FortéBio Corp., Menlo Park, Calif.). The experiment was performed at 25° C. in 10 mM HEPES, 150 mM NaCl, 3 mM EDTA, 0.05% v/v Surfactant Tween-20, and 1 mg/mL BSA, pH 7.4 (HBS-EBT) buffer with the plate shaking at the speed of 1000 rpm.
To assess whether different antibodies are able to compete with one another for binding to their respective epitopes on the recombinant human MSR1 extracellular domain expressed with a N-terminal nonahistidine tag (SEQ ID NO: 688) (His9-hMSR1; R&D Systems, Cat #2708-MS), around […] of His9-hMSR1 was first captured onto anti-Penta-His antibody coated OCTET® biosensor tips (“Penta-His” disclosed as SEQ ID NO: 690) (Pall FortéBio Corp., #18-5122) by submerging the biosensor tips for 45 seconds into wells containing a […] solution of His9-hMSR1. The antigen-captured biosensor tips were then saturated with a first anti-MSR1 monoclonal antibody (subsequently referred to as “mAb-1”) by immersion into wells containing a […] solution of mAb-1 for 4 minutes. The biosensor tips were then submerged into wells containing a […] solution of a second anti-MSR1 monoclonal antibody (subsequently referred to as “mAb-2”) for 4 minutes. All of the biosensor tips were washed in HBS-EBT buffer in between each step of the experiment. The real-time binding response was monitored during the course of the experiment and the binding response at the end of each step was recorded. […] Table 17 explicitly defines the relationships of antibodies competing in both directions, independent of the order of binding.

[1] = molecular target: T2, MSR1-mediated DiI-OxLDL uptake in HEK293.Myc.hMSR1 cells (Homo sapiens, UniProt P21757); test: Ligand uptake assay, DiI-OxLDL; assay type: cell-based
T2 construct: expressed in transfected cells; host or cells: HEK293 (lentiviral transduction, hygromycin selection)
T2 sequence (P21757 1-451): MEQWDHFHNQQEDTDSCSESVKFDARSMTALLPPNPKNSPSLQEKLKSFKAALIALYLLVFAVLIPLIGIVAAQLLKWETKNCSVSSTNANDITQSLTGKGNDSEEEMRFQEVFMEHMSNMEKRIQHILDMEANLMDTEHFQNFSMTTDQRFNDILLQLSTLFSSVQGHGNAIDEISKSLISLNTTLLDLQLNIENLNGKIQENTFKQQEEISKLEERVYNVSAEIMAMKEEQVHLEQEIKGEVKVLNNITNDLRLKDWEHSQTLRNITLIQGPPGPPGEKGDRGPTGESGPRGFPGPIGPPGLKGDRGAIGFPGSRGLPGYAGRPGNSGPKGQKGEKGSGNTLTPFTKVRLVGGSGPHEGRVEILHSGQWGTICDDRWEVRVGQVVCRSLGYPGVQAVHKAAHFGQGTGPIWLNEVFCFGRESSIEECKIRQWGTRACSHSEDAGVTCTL
Method: The resulting cell line, referred to here as “HEK293.Myc.hMSR1”, was selected and maintained in DMEM containing 10% FBS, NEAA, penicillin/streptomycin, L-glutamine, and 100 μg/mL hygromycin.
After 30 minutes, either oxidized or acetylated low-density lipoprotein (LDL) labeled with 1,1′ dioctadecyl-3,3,3′,3′-tetramethylindocarbocyanine perchlorate (referred to as “DiI-OxLDL” or “DiI-AcLDL,” respectively) was added to the cells at a constant concentration of 10 μg/mL. […] Results were analyzed using nonlinear regression (4-parameter logistics) with the Prism 7 program to obtain EC50 and IC50 values. The percentage of inhibition was calculated with the Relative Fluorescent Unit (RFU) values by using the following equation: […]
In the equation, “RFUBaseline” is the fluorescence value from the cells treated with 10 μg/mL ligand without antibodies, “RFUInhibition” is the minimum fluorescence value with for a particular antibody with 10 μg/mL ligand, and “RFUBackground” is the fluorescence value from cells without any ligand or antibodies.

B1: H1H27729P-N297Q: anti-MSR1 antibody; "Antibody H1H27729P-N297Q showed no inhibition of DiI-OxLDL uptake" (antibody, V domains shown)
VH: QVQLVESGGGLVKPGGSLRLSCAASGFIFSDYYMSWIRQAPGKGLEWVSYISSSGTTIYGDSVKGRFTMSRDNAKNSLYLQMNSLRAEDTAVYYCARNYALFDYWGQGTLVTVSS
VL: DIQMTQSPSSLSASVGDRVTITCQASQDISKYLNWYQQKPGKAPKLLIYYTSNLETGVPSRFSGSGSGTDFTFTISSLQPEDIATYYCHQSDYLPFTFGPGTKVDIKR
- mAb-2 antibodies which Compete with mAb-1 (His9-hMSR1): Data Inconclusive**
- inhibition of DiI-OxLDL uptake (in words) [1]: no inhibition of DiI-OxLDL uptake
- IC50, Dil-Oxidized LDL ([1]; 10 μg/mL DiI-OxLDL): no inhibition
- % Inhibition, Dil-Oxidized LDL ([1]; maximum inhibition of uptake, 10 μg/mL DiI-OxLDL): no inhibition
